The text below walks through data of EP1752160A2 (Mannkind Corporation, dated 2007).

In test [1] the target is T1, HLA-A2.1 (human).
T1 construct: also called HLA-A*0201; HLA-A0201
Description: HLA-A2 binding assay on T2 cells, flow cytometry. On the technique in general: Flow cytometry measures light scatter and fluorescence of single cells or particles in a stream.

Test [2] concerns the target T1, HLA-A2.1. As to the kind of experiment: T2 cell HLA-A2.1 stabilisation assay, flow cytometry.
The target in test [3] is T1, HLA-A2.1. As to the kind of experiment: T2 cell HLA-A*0201 stabilisation assay, flow cytometry.

B1: tyrosinase207-215 (peptide)
peptide: FLPWHRLFL
notes: Synthetic 9-mer of tyrosinase; also called Tyr 207-215
Consider B1, for which the binding result with HLA-A2.1 [1] was “binds”.

B2: tyrosinase208-216 (peptide)
peptide: LPWHRLFLL
notes: Synthetic 9-mer of tyrosinase; also called Tyr 208-216
For B2, the binding result in the test with HLA-A2.1 [1] is reported as “binds”.

B3: SSX-2 41-49 (peptide)
peptide: KASEKIFYV
notes: Synthetic 9-mer of SSX-2
As to B3, the binding result with HLA-A2.1 [2] was “binds”.

B4: PSMA663-671 (peptide)
peptide: MMNDQLMFL
notes: 9-mer of prostate specific membrane antigen
For B4, in the test with HLA-A2.1 [3], the binding result is listed as “binds”.
